Test results published in patent US20230399395A1 (SHANGHAI NOVAMAB BIOPHARMACEUTICALS, published 2023).

T1: mouse IL5 (mouse, UniProt P04401 21-133)
T1 sequence (looked up): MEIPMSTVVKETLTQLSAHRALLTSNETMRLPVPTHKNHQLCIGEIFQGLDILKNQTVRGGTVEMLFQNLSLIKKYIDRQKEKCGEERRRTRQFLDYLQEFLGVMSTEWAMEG

B1: bivalent biepitope IL5 nanobody HuNb66-HuNb21 expressed by yeast (VHH)
chain: EVQLQESGGGLVQPGGSLRLSCAASGYTVSSNMGWFRQAPGKEREGVAAIYPDGATYYADSVKGRFTISRDNSENTLYLQMNSLRAEDTAMYYCAADLAFNGLGTLALHGYWGQGTLVTVSSGGGGSGGGGSGGGGSGGGGSEVQLQESGGGLVQPGGSLRLSCAASGYPYSGDYCMGWFRQAPGKEREGVAAFYTGGGSTYYADSVKGRFTISRDNSKNTLYLQMNSLRAEDTAVYYCAADPWSVYGGSCGVKDPNPKAFNYWGQGTLVTVSS
notes: also called bivalent biepitopic antibody HuNb66-HuNb21
B2: Nb92 (VHH)
VHH: QVQLQESGGGLVQPGGSLRLSCAASGFTFSNYYMSWVRQAPGKGLEWVSSISSDGSNTYYEDSVKGRFTISRDNANNTLYLQMNSLKSEDTALYHCATDLYDDSWYDHWGQGTQVTVSS
notes: Camel nanobody, prokaryotic expression from the pMECS vector; It was detected with anti-HA antibody
B3: Nb25 (VHH)
VHH: QVQLQESGGGSVQAGGSLRLSCAASEYTYSRYCMGWFRQVPGKEREGVATIDSDGSTSYADSVKGRFTISKDNAKNTLYLQMNSLKPEDTAMYYCAARYFYIATTGLRPCGEYEYNYWGQGTQVTVSS
notes: as for B2
B4: Nb21 (VHH)
VHH: QVQLQESGGGSAQAGGSLKLSCVVSGYPYSGDYCMGWFRQAPGKEREGVAAFYTGGGSTYYADSVKGRFTTSQDNATSTFHLQMNSLKPEDTATYYCAADPWSVYGGSCGVKDPNPKAFNYWGQGTQVTVSS
notes: Camel nanobody, prokaryotic expression from the pMECS vector; also called Nb21-biotin
B5: Nb66 (VHH)
VHH: QVQLQESGGGSVQAGGSLRLSCAASGYTVSSNMGWFRQAPGKEREGVAAIYPDGATYYADSVKGRFTISQDNAENTVYLQMNSLKPEDTAMYYCAADLAFNGLGTLALHGYWGQGTQVTVSS
notes: as for B2

What was measured:
[1] = biological target: T2, human IL5 (human, UniProt P05113 20-134, biotinylated (IL5-biotin) in Examples 2, 5, 6, 9 and 11; site not stated); test: cell-based or functional assay
[2] = biological target: T2, human IL5; test: Flow cytometry, blocking of IL5-biotin binding to HEK293F cells expressing IL5R
Description: Specifically, The HEK293F stable cells with high expression of IL5R were centrifuged at 1000 rpm for 5 min, and the supernatant was discarded. The cells were washed once with 5 mL PBS and then resuspended with 2 mL PBS. After counting, the cells were divided into a 96-well plate with 3×10⁵ cells per well. […] After centrifugation at 4° C. at 3000 rpm, 200 μL PBS was added to each well, and then centrifuged at 3000 rpm and 4° C. for 4 min after resuspension. The diluted SA-PE antibody (diluted at 0.3:100) was added and incubated at 4° C. for 20 min. After centrifugation at 4° C. for 4 min at 3000 rpm, the supernatant was discarded, and 200 μL PBS was added to each well to wash the cells twice. Then 200 μL PBS was added to resuspend the cells, transfer to a flow tube, and the PE signal of each sample was detected by flow cytometry.

[3] = biological target: T2, human IL5; test: BLI (Fortebio Red96), 1:1 global fit
Description: Probes coated with Protein A were used to capture antibody, capture time 180 s; binding to gradient diluted antigen, binding time 300 s; dissociation time 360 s; 10 mM glycine (pH 1.7) was used to regenerate 3 times, each time for 5 s. Fortebio Analysis version 9.0 was used for the analysis, the 1:1 binding model Global mode was fitted, and the binding rate (Kon), the dissociation rate (Kdis) and the dissociation constant KD were calculated.

[4] = biological target: T1, mouse IL5; test: ELISA, coated IL5, anti-HA detection
Description: After washing 5 times with PBST, 300 μL 1% BSA was added to each well for blocking at room temperature for 2 hours. […] Then the plate was washed for 5 times with PBST, 100 μL diluted mouse anti-HA antibody (1:2000 dilution) was added and incubated for 1 hour at 37° C. After washing 5 times with PBST, 100 μL diluted alkaline phosphatase modified anti-mouse antibody (1:2000 dilution) was added and incubated at 37° C. for 1 hour. Then the plate was washed with PBST for 5 times, developing solution was added, and the absorption value was measured at 405 nm wavelength by a microplate reader.

Binder | IC50 of inhibition of the proliferation of TF-1 cells induced by IL5 (CCK8, OD450) [1] [nM] | IC50 [2] [µg/mL] | Kd [3] [nM] | binding result [4]
B1 | 0.0512 | 0.841 | – | –
B2 | – | – | < 1 | no binding
B3 | – | – | < 1 | no binding
B4 | – | – | < 1 | no binding
B5 | – | – | < 1 | no binding
